Measured values published in patent US20110027909A1, “Chimera Compositions and Methods of Use” (priority 2009, published 2011).

Key:
[1] = system: recombinant dopamine receptor; assay: Negative control calcium release, HEK 293 cells expressing a recombinant dopamine receptor; assay type: cell-based; conditions: HEK 293 cells expressing recombinant dopamine receptor; FIG. 7
Protocol: (§1) As a negative control, the effect of CRF on HEK 293 cells that had not been transfected or which expressed a recombinant dopamine receptor was measured.

[2] = system: IGF-BP2_CRFR chimera; assay: FLIPR intracellular calcium release, HEK-293 cells expressing IGF-BP2_CRFR2 chimera; assay type: cell-based, human; conditions: CRF 1 pM-10 μM, FIG. 13
Protocol: The mammalian cells expressing the various isolated chimera constructs were tested for the ability of the chimera proteins to activate intracellular calcium release. The HEK-293 cells expressing the constructs of Example 9 were grown in 10% FBS in DMEM cell media with hygromycin (0.4%) selection reagent. The cells were plated out in 96-well plates (40 000 cells/well) in FBS/DMEM media. On the following day, cells were serum starved (1% FBS in DMEM; 100 μl/well) for 2 hours prior to testing.
The cells were loaded with diluted FLIPR™ dye (100 μl) for one hour prior to testing with CRF. The selected hygromycin resistant cells were plated in 96-well clear bottom black microplates at a density of approximately 40,000 cells/well, in DMEM/10% FBS media. […]
(§2) A FlexStation (Molecular Devices) fluorometric imaging plate reader was used to measure changes in intracellular Ca^2+. […] The machine was used in Flex mode, and the fluorescent intensity was measured from the bottom with the excitation at 485 nm and emission at 525 nm for 120 seconds at 21° C.
The results of the FLIPR experiments detecting the levels of intracellular calcium induced by activation of the chimeras with CRF are shown in FIG. 13. […] Results are expressed as the mean (±SEM) relative fluorescence units (RFU), calculated as agonist-induced maximum Ca^2+ peak/cell number×1000.

[3] = target: T1, CRF-BP_NK1R chimera (Homo sapiens, UniProt P24387+P25103); assay: FLIPR intracellular calcium release, HEK-293 cells expressing CRF-BP_NK1R chimera; assay type: cell-based; conditions: 1 pM-10 μM, FIGS. 9, 10
T1 construct: the construct used to create a CRF-BP(FL)_NK1R chimera; FLAG (N); expressed in transfected cells
T1 sequence (P24387+P25103 fused, change not shown): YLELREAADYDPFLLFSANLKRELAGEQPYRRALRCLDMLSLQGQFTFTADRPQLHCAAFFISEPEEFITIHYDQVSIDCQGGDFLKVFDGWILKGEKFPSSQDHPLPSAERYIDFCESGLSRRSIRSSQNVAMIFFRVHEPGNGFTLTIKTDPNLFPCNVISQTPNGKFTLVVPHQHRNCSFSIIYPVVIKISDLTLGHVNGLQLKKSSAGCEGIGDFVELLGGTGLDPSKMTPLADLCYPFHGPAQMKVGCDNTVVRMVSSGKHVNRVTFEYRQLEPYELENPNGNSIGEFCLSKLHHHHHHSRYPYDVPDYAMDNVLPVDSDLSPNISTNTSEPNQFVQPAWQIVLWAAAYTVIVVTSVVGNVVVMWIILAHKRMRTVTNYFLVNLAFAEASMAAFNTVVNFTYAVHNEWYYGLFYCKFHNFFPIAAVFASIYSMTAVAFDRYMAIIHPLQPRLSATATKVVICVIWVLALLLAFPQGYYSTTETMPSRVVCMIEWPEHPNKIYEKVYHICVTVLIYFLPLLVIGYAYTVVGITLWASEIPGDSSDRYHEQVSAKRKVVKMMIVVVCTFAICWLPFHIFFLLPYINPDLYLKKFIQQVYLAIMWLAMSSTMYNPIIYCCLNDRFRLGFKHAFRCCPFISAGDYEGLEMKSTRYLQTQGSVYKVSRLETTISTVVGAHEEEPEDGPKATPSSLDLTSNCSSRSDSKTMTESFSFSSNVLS
Protocol: The mammalian cells expressing the various isolated chimera constructs were tested for the ability of the chimera proteins to activate intracellular calcium release. The HEK-293 cells of Example 5 expressing the constructs of Example 4 were grown in 10% FBS in DMEM cell media with hygromycin (0.4%) as a selection reagent. Cells were plated out in 96-well plates (40 000 cells/well) in FBS/DMEM media. On the following day, cells were serum starved (1% FBS in DMEM; 100 μl/well) for 2 hours prior to testing.

[4] = target: T2, CRF-BP(FL)_CRFR2 chimera (Homo sapiens, UniProt P24387+Q13324); assay: FLIPR intracellular calcium release, agonist mode, HEK 293 cells expressing full-length CRF-BP_CRFR2 chimera; assay type: cell-based
T2 construct: DNA encoding the CRFR2 protein was amplified using the ssHA CRFR2_Zeo plasmid DNA template; FLAG (N); expressed in transfected cells
T2 sequence (P24387+Q13324 with tags, fused parts or gaps): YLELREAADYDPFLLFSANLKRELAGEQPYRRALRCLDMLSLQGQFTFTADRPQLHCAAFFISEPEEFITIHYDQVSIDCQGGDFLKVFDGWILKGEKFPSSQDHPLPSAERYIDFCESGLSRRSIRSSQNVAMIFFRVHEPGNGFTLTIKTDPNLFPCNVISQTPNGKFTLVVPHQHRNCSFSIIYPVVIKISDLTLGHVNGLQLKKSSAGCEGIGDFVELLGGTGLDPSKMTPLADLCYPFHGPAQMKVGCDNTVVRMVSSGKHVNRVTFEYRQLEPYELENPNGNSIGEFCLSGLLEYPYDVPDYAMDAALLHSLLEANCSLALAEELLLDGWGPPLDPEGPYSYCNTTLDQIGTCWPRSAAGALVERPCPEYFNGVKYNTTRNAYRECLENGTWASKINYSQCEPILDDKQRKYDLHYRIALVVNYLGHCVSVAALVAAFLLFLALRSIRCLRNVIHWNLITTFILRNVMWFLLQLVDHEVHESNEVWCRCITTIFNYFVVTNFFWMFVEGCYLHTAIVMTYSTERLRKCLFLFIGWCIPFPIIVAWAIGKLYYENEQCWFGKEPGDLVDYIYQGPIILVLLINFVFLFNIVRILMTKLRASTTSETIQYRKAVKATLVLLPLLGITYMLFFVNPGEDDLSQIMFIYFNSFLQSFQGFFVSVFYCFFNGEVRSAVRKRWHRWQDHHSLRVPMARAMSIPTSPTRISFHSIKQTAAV
Protocol: (§3) The mammalian cells expressing the isolated chimera constructs were tested for the ability of the chimera proteins to activate intracellular calcium release via signaling through Gq. HEK 293 cells of Example 2 expressing the constructs of Example 1 were grown in 10% FBS in DMEM cell media with hygromycin (0.4%) selection reagent. Cells were plated out in 96-well plates (40 000 cells/well) in FBS/DMEM media. On the following day, cells were serum starved (1% FBS in DMEM; 100 μl/well) for 2 hours prior to testing.
(§4) Cells were loaded with diluted FLIPR™ dye (100 μl) for one hour prior to testing with CRF. The selected hygromycin resistant cells were plated in 96-well clear bottom black microplates at a density of approximately 40,000 cells/well, in DMEM/10% FBS media. […]
as §2
The results of the FLIPR experiments detecting the levels of intracellular calcium induced by activation of the chimera with CRF are shown in FIGS. 3-5. […] Results are expressed as the mean (±SEM) relative fluorescent units (RFU), calculated as agonist-induced maximum Ca^2+ peak/cell number×1000.

[5] = target: T3, CRF-BP(10 Kd)_CRFR2 chimera (Homo sapiens, UniProt P24387+Q13324); assay: FLIPR intracellular calcium release, HEK 293 cells expressing CRF-BP(10 Kd)_CRFR2 chimera; assay type: cell-based
T3 construct: The CRF-BP (10 Kd) fragment is comprised of 88 amino acid residues (A235 to L322); DNA encoding the CRFR2 protein was amplified using the ssHA CRFR2_Zeo plasmid DNA template; FLAG (N); expressed in transfected cells
T3 sequence (P24387+Q13324 with tags, fused parts or gaps): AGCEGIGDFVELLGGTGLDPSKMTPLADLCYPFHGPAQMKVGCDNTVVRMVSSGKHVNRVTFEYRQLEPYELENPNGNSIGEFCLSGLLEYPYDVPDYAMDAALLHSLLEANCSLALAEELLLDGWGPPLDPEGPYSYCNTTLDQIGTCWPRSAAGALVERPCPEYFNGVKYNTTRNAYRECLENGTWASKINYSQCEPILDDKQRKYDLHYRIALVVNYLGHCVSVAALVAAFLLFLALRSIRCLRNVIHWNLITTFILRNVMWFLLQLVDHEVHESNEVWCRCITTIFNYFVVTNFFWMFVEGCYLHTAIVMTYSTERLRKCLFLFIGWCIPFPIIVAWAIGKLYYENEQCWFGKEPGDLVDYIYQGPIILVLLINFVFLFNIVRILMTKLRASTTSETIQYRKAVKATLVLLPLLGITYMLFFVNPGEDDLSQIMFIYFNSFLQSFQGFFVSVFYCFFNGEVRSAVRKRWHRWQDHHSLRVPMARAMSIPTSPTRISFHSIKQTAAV
Protocol: as §3, §4, §2
Results are expressed as the mean (±SEM) relative fluorescent units (RFUs), calculated as agonist-induced maximum Ca^2+ peak/cell number×1000.

[6] = system: untransfected HEK 293 cells; assay: Negative control calcium release, HEK 293 cells not transfected; assay type: cell-based, human; conditions: FIG. 7
Protocol: as §1

[7] = CRF, intracellular calcium release

In the case of Corticotropin Releasing Factor [CRF], the intracellular calcium signaling [1] is reported as “did not display any significant signaling”, the “intracellular calcium release (RFU)” value [2] is reported as “different levels of CRF-induced (1 pM-10 μM) intracellular calcium release in the HEK-293 cells corresponding to the concentration of CRF” and the “intracellular calcium release (RFU)” value [3] is reported as “different levels of CRF-induced (1 pM-10 μM) intracellular calcium release in the HEK-293 cells corresponding to the concentration of CRF”. For the same substance, the “intracellular calcium release (agonist-induced maximum Ca2+ peak, RFU)” value ([4]; 1 pM-10 μM, HEK 293 cells, FIGS. 3-5) was “increased as the concentration of CRF was increased”, the “signaling through the chimera compared with CRFR2 alone” value [4, 7] was “more effectively than CRF at CRFR2 alone” and the “intracellular calcium release (RFU)” value ([5]; CRF 1 pM-10 μM, compared with full-length chimera, FIG. 6) was “even more robust signaling than the full-length CRF-BP_CRFR2 chimera”. The “signaling through the chimera compared with CRFR2 alone” value [5, 7] was “more effectively than CRF at CRFR2 alone” and the intracellular calcium signaling [6] was “did not display any significant signaling”.
